This data set deals with the molecule itself. Briefly: SEC. A general note: SEC sorts molecules by how far they enter the pores of the column.

As a reminder, the stoichiometry N is the number of molecules, sites or subunits per partner or assembly.

B1: Bacillus anthracis kynurenine formamidase KynB (enzyme)
chain: MKTSKWIDISQPLNNDIATWPGDTPFSYEVLWSKEESGSVNVGKLTMSIHTGTHIDAPFHFDNDGKKVLDLDIQVYVGPTRIIDVSNLESIGKKELEKFHLEGVERLLLRTSSHGKANEFPDIIPHLRADIAPFLSEKGIRLIGVDVPSVDPLDDKELAAHHQLFKHSIHILENVVLDHVADGDYELIALPLALSDADGSPVRAVIRPI
notes: also called BaKynB; KFase
Consider B1, for which the “stoichiometry N” value is 2.

For the origin of these results see article PMC4243253 (Biochemical Journal, 2014).
